First the molecules themselves.
B1: hu1810-9 (antibody, human IgG4 S228P, kappa, F234A L235A, V domains shown)
VH: QVQLVQSGAEVKKPGSSVKVSCKASGGTFSNYAISWVRQAPGQGLEWMGEIYPTSGNTYYNEKFKGRVTITADKSTSTAYMELSSLRSEDTAVYYCARGVITTVVSTDYFDYWGQGTLVTVSS
VL: DIQMTQSPSSLSASVGDRVTITCRASLDISNYLNWYQLKPGKAVKLLIYYTSTLHSGVSSRFSGSGSGTEYTLTISSLQPEDFATYYCQQGNMVPYTFGGGTKVEIKR
B2: hu1803-1 (antibody, human IgG4 S228P, kappa, F234A L235A, V domains shown)
VH: EVQLVQSGAEVKKPGASVKVSCKASGYTFTDYWIEWVRQAPGQGLEWMGEILPGSTYTNYNEKFKGRVTMTRDTSTSTVYMELSSLRSEDTAVYYCARGLSTLMAVDYFDYWGQGTTVTVSS
VL: DIQMTQSPSSLSASVGDRVTITCRASQDISNYLNWYQQKPGKAPKLLIYYSSTLHSGVPSRFSGSGSGTDFTLTISSLQPEDFATYYCQQTNIFPWTFGGGTKVEIKR
B3: hu1803-4 (antibody, human IgG4 S228P, kappa, F234A L235A, V domains shown)
VH: EVQLVQSGAEVKKPGASVKVSCKASGYTFTDYWIEWVKQAPGQGLEWIGEILPGSTYTNYNEKFKGRATFTADPSTSTAYMELSSLRSEDTAVYYCSRGLSTLMAVDYFDYWGQGTTVTVSS
VL: DIQMTQSPSSLSASVGDRVTITCRASQDISNYLNWYQQKPGKAPKLLIYYSSTLHSGVPSRFSGSGSGTDFTLTISSLQPEDFATYYCQQTNIFPWTFGGGTKVEIKR
B4: hu1810-1 (antibody, human IgG4 S228P, kappa, F234A L235A, V domains shown)
VH: QVQLVQSGAEVKKPGSSVKVSCKASGGTFSNYAISWVRQAPGQGLEWMGEIYPTSGNTYYNEKFKGRVTITADKSTSTAYMELSSLRSEDTAVYYCARGVITTVVSTDYFDYWGQGTLVTVSS
VL: DIQMTQSPSSLSASVGDRVTITCRASLDISNYLNWYQQKPGKAPKLLIYYTSTLHSGVPSRFSGSGSGTDFTLTISSLQPEDFATYYCQQGNMVPYTFGGGTKVEIKR
B5: hu1810-4 (antibody, human IgG4 S228P, kappa, F234A L235A, V domains shown)
VH: QVQLVQSGAEVKKPGSSVKVSCKASGGTFSNYAISWVKQAPGQGLEWIGEIYPTSGNTYYNEKFKGKATLTADRSTSTMYMELSSLRSEDTAVYYCASGVITTVVSTDYFDYWGQGTLVTVSS
VL: DIQMTQSPSSLSASVGDRVTITCRASLDISNYLNWYQQKPGKAPKLLIYYTSTLHSGVPSRFSGSGSGTDFTLTISSLQPEDFATYYCQQGNMVPYTFGGGTKVEIKR
B6: hu1810-5 (antibody, human IgG4 S228P, kappa, F234A L235A, V domains shown)
VH: QVQLVQSGAEVKKPGSSVKVSCKASGGTFSNYAISWVRQAPGQGLEWMGEIYPTSGNTYYNEKFKGRVTITADKSTSTAYMELSSLRSEDTAVYYCARGVITTVVSTDYFDYWGQGTLVTVSS
VL: DIQMTQSPSSLSASVGDRVTITCRASLDISNYLNWYQQKPGKAVKLLIYYTSTLHSGVSSRFSGSGSGTDYTLTISSLQPEDFATYYCQQGNMVPYTFGGGTKVEIKR
B7: hu1810-7 (antibody, human IgG4 S228P, kappa, F234A L235A, V domains shown)
VH: QVQLVQSGAEVKKPGSSVKVSCKASGGTFSNYAISWVRQAPGQGLEWIGEIYPTSGNTYYNEKFKGRATLTADRSTSTMYMELSSLRSEDTAVYYCASGVITTVVSTDYFDYWGQGTLVTVSS
VL: DIQMTQSPSSLSASVGDRVTITCRASLDISNYLNWYQQKPGKAVKLLIYYTSTLHSGVSSRFSGSGSGTDYTLTISSLQPEDFATYYCQQGNMVPYTFGGGTKVEIKR
B8: hu1803-8 (antibody, human IgG4 S228P, kappa, F234A L235A, V domains shown)
VH: EVQLVQSGAEVKKPGASVKVSCKASGYTFTDYWIEWVKQAPGQGLEWIGEILPGSTYTNYNEKFKGRATFTADPSTSTAYMELSSLRSEDTAVYYCSRGLSTLMAVDYFDYWGQGTTVTVSS
VL: DIQMTQSPSSLSASVGDRVTITCRASQDISNYLNWYQQKPGGAVKLLIYYSSTLHSGVPSRFSGSGSGTDYTLTISSLQPEDFATYFCQQTNIFPWTFGGGTKVEIKR
B9: hu1810-3 (antibody, human IgG4 S228P, kappa, F234A L235A, V domains shown)
VH: QVQLVQSGAEVKKPGSSVKVSCKASGGTFSNYAISWVRQAPGQGLEWIGEIYPTSGNTYYNEKFKGRATLTADRSTSTMYMELSSLRSEDTAVYYCASGVITTVVSTDYFDYWGQGTLVTVSS
VL: DIQMTQSPSSLSASVGDRVTITCRASLDISNYLNWYQQKPGKAPKLLIYYTSTLHSGVPSRFSGSGSGTDFTLTISSLQPEDFATYYCQQGNMVPYTFGGGTKVEIKR
B10: hu1803-11 (antibody, human IgG4 S228P, kappa, F234A L235A, V domains shown)
VH: EVQLVQSGAEVKKPGASVKVSCKASGYTFTDYWIEWVRQAPGQGLEWIGEILPGSTYTNYNEKFKGRATFTADTSTSTAYMELSSLRSEDTAVYYCSRGLSTLMAVDYFDYWGQGTTVTVSS
VL: DIQMTQSPSSLSASVGDRVTITCRASQDISNYLNWYQQKPGKAVKLLIYYSSTLHSGVPSRFSGSGSGTDYTLTISSLQPEDFATYYCQQTNIFPWTFGGGTKVEIKR
B11: hu1810-6 (antibody, human IgG4 S228P, kappa, F234A L235A, V domains shown)
VH: QVQLVQSGAEVKKPGSSVKVSCKASGGTFSNYAISWVRQAPGQGLEWMGEIYPTSGNTYYNEKFKGRVTITADRSTSTMYMELSSLRSEDTAVYYCASGVITTVVSTDYFDYWGQGTLVTVSS
VL: DIQMTQSPSSLSASVGDRVTITCRASLDISNYLNWYQQKPGKAVKLLIYYTSTLHSGVSSRFSGSGSGTDYTLTISSLQPEDFATYYCQQGNMVPYTFGGGTKVEIKR
B12: hu1810-8 (antibody, human IgG4 S228P, kappa, F234A L235A, V domains shown)
VH: QVQLVQSGAEVKKPGSSVKVSCKASGGTFSNYAISWVKQAPGQGLEWIGEIYPTSGNTYYNEKFKGKATLTADRSTSTMYMELSSLRSEDTAVYYCASGVITTVVSTDYFDYWGQGTLVTVSS
VL: DIQMTQSPSSLSASVGDRVTITCRASLDISNYLNWYQQKPGKAVKLLIYYTSTLHSGVSSRFSGSGSGTDYTLTISSLQPEDFATYYCQQGNMVPYTFGGGTKVEIKR
B13: hu1803-10 (antibody, human IgG4 S228P, kappa, F234A L235A, V domains shown)
VH: EVQLVQSGAEVKKPGASVKVSCKASGYTFTDYWIEWVRQAPGQGLEWMGEILPGSTYTNYNEKFKGRVTFTADTSTSTAYMELSSLRSEDTAVYYCARGLSTLMAVDYFDYWGQGTTVTVSS
VL: DIQMTQSPSSLSASVGDRVTITCRASQDISNYLNWYQQKPGKAVKLLIYYSSTLHSGVPSRFSGSGSGTDYTLTISSLQPEDFATYYCQQTNIFPWTFGGGTKVEIKR
B14: hu1803-5 (antibody, human IgG4 S228P, kappa, F234A L235A, V domains shown)
VH: EVQLVQSGAEVKKPGASVKVSCKASGYTFTDYWIEWVRQAPGQGLEWMGEILPGSTYTNYNEKFKGRVTMTRDTSTSTVYMELSSLRSEDTAVYYCARGLSTLMAVDYFDYWGQGTTVTVSS
VL: DIQMTQSPSSLSASVGDRVTITCRASQDISNYLNWYQQKPGGAVKLLIYYSSTLHSGVPSRFSGSGSGTDYTLTISSLQPEDFATYFCQQTNIFPWTFGGGTKVEIKR
B15: hu1803-6 (antibody, human IgG4 S228P, kappa, F234A L235A, V domains shown)
VH: EVQLVQSGAEVKKPGASVKVSCKASGYTFTDYWIEWVRQAPGQGLEWMGEILPGSTYTNYNEKFKGRVTFTADTSTSTAYMELSSLRSEDTAVYYCARGLSTLMAVDYFDYWGQGTTVTVSS
VL: DIQMTQSPSSLSASVGDRVTITCRASQDISNYLNWYQQKPGGAVKLLIYYSSTLHSGVPSRFSGSGSGTDYTLTISSLQPEDFATYFCQQTNIFPWTFGGGTKVEIKR
B16: hu1803-3 (antibody, human IgG4 S228P, kappa, F234A L235A, V domains shown)
VH: EVQLVQSGAEVKKPGASVKVSCKASGYTFTDYWIEWVRQAPGQGLEWIGEILPGSTYTNYNEKFKGRATFTADTSTSTAYMELSSLRSEDTAVYYCSRGLSTLMAVDYFDYWGQGTTVTVSS
VL: DIQMTQSPSSLSASVGDRVTITCRASQDISNYLNWYQQKPGKAPKLLIYYSSTLHSGVPSRFSGSGSGTDFTLTISSLQPEDFATYYCQQTNIFPWTFGGGTKVEIKR
B17: hu1803-7 (antibody, human IgG4 S228P, kappa, F234A L235A, V domains shown)
VH: EVQLVQSGAEVKKPGASVKVSCKASGYTFTDYWIEWVRQAPGQGLEWIGEILPGSTYTNYNEKFKGRATFTADTSTSTAYMELSSLRSEDTAVYYCSRGLSTLMAVDYFDYWGQGTTVTVSS
VL: DIQMTQSPSSLSASVGDRVTITCRASQDISNYLNWYQQKPGGAVKLLIYYSSTLHSGVPSRFSGSGSGTDYTLTISSLQPEDFATYFCQQTNIFPWTFGGGTKVEIKR
B18: hu1803-12 (antibody, human IgG4 S228P, kappa, F234A L235A, V domains shown)
VH: EVQLVQSGAEVKKPGASVKVSCKASGYTFTDYWIEWVKQAPGQGLEWIGEILPGSTYTNYNEKFKGRATFTADPSTSTAYMELSSLRSEDTAVYYCSRGLSTLMAVDYFDYWGQGTTVTVSS
VL: DIQMTQSPSSLSASVGDRVTITCRASQDISNYLNWYQQKPGKAVKLLIYYSSTLHSGVPSRFSGSGSGTDYTLTISSLQPEDFATYYCQQTNIFPWTFGGGTKVEIKR
B19: hu1803-2 (antibody, human IgG4 S228P, kappa, F234A L235A, V domains shown)
VH: EVQLVQSGAEVKKPGASVKVSCKASGYTFTDYWIEWVRQAPGQGLEWMGEILPGSTYTNYNEKFKGRVTFTADTSTSTAYMELSSLRSEDTAVYYCARGLSTLMAVDYFDYWGQGTTVTVSS
VL: DIQMTQSPSSLSASVGDRVTITCRASQDISNYLNWYQQKPGKAPKLLIYYSSTLHSGVPSRFSGSGSGTDFTLTISSLQPEDFATYYCQQTNIFPWTFGGGTKVEIKR
B20: hu1810-2 (antibody, human IgG4 S228P, kappa, F234A L235A, V domains shown)
VH: QVQLVQSGAEVKKPGSSVKVSCKASGGTFSNYAISWVRQAPGQGLEWMGEIYPTSGNTYYNEKFKGRVTITADRSTSTMYMELSSLRSEDTAVYYCASGVITTVVSTDYFDYWGQGTLVTVSS
VL: DIQMTQSPSSLSASVGDRVTITCRASLDISNYLNWYQQKPGKAPKLLIYYTSTLHSGVPSRFSGSGSGTDFTLTISSLQPEDFATYYCQQGNMVPYTFGGGTKVEIKR

human GCGR (full-length glucagon receptor of 477 amino acids), sequence (P47871 26-477 limits assumed): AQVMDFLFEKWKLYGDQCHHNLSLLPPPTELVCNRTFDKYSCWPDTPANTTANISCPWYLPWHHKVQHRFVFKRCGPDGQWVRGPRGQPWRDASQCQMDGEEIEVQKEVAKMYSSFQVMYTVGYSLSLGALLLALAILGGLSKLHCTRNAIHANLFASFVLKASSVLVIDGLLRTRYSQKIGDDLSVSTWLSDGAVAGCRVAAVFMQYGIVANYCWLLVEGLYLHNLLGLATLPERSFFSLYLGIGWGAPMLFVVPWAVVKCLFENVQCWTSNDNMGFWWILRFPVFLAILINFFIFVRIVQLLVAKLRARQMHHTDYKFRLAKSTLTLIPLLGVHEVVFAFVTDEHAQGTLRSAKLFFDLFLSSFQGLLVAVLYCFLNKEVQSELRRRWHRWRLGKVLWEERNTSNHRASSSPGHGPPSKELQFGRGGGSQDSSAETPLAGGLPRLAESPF

This test has as its target human GCGR (full-length glucagon receptor of 477 amino acids) (human, UniProt P47871 26-477). Description: cell-based or functional assay.
With B1, the half-inhibitory concentration (IC50) (as a rule, the midpoint of a concentration-inhibition curve) is 125 nM and the Imax was determined as 90.4%.

For the molecule B2, 191 nM corresponded to half-maximal inhibition (IC50) and the Imax is 91.8%.

With B3, 140 nM corresponded to half-maximal inhibition (IC50) and the Imax was found to be 100%.

With B4, the “IC50” value was 189 nM and the Imax turned out to be 83.2%.

Turning to B5, the “IC50” value is 138 nM and the Imax turned out to be 99.1%.

With B6, the midpoint of inhibition, the IC50, lay at 216 nM and the Imax was found to be 86.4%.

For the molecule B7, the “IC50” value amounted to 119 nM and the Imax worked out at 100%.

Take B8: half-maximal inhibition (IC50) required 85.9 nM and the Imax was 100%.

In the case of B9, half-maximal inhibition (IC50) required 192 nM and the Imax was 95.4%.

Regarding B10, the “IC50” value was 88.7 nM and the Imax turned out to be 100%.

Consider B11, for which half-maximal inhibition (IC50) was put at 157 nM and the Imax was 100%.

B12: 133 nM corresponded to half-maximal inhibition (IC50) and the Imax turned out to be 100%.

B13: the “IC50” value stood at 76.7 nM and the Imax stood at 100%.

Regarding B14, 79 nM corresponded to half-maximal inhibition (IC50) and the Imax was 100%.

Turning to B15, the “IC50” value was found to be 77.5 nM and the Imax stood at 100%.

As to B16, 110 nM corresponded to half-maximal inhibition (IC50) and the Imax was 96.7%.

Take B17: the “IC50” value was 73 nM and the Imax amounted to 100%.

As for B18, the “IC50” value was 86.9 nM and the Imax came to 100%.

As to B19, the “IC50” value was found to be 137 nM and the Imax is 98.5%.

As for B20, the “IC50” value amounted to 106 nM and the Imax came out at 100%.

For the origin of these results see US20220153853A1 (JIANGSU HENGRUI MEDICINE, published 2022).
